The assay addresses Human calmodulin (human, UniProt P0DP23 1-149). In words: ITC.

Kd data for one molecule are collected here from article PMC12118636 (Science Advances, 2025).

B1: Human NaV1.9 C-tail (residues 1618 to 1766) (domain or fragment)
chain: LGEDDFDIFYEVWEKFDPEATQFIKYSALSDFADALPEPLRVAKPNKYQFLVMDLPMVSEDRLHCMDILFAFTARVLGGSDGLDSMKAMMEEKFMEANPLKKLYEPIVTTTKRKEEERGAAIIQKAFRKYMMKVTKGDQGDQNDLENGP
Molecule B1 gave a Kd of approximately 214 µM.
